# The DeepSol protein solubility set
# Assay: soluble on expression in E. coli; label from the status in PepcDB or PDB records
row,Sequence,soluble on expression in E. coli
1,AQEVLRRTPLYDFHLAHGGKMVAFAGWSLPVQYRDSHTDSHLHTRQHCSLFDVSHMLQTKILGSDRVKLMESLVVGDIAELRPNQGTLSLFTNEAGGILDDLIVTNTSEGHLYVVSNAGCWEKDLALMQDKVRELQNQGRDVGLEVLDNALLALQGPTAAQVLQAGVADDLRKLPFMTSAVMEVFGVSGCRVTRCGYTGEDGVEISVPVAGAVHLATAILKNPEVKLAGLAARDSLRLEAGLCLYGNDIDEHTTPVEGSLSWTLGKRRRAAMDFPGAKVIVPQLKGRVQRRRVGLMCEGAPMRAHSPILNMEGTKIGTVTSGCPSPSLKKNVAMGYVPCEYSRPGTMLLVEVRRKQQMAVVSKMPFVPTNYYTLK,soluble
2,MSLGAKPFGEKKFIEIKGRRMAYIDEGTGDPILFQHGNPTSSYLWRNIMPHCAGLGRLIACDLIGMGDSDKLDPSGPERYAYAEHRDYLDALWEALDLGDRVVLVVHDWGSALGFDWARRHRERVQGIAYMEAIAMPIEWADFPEQDRDLFQAFRSQAGEELVLQDNVFVEQVLPGLILRPLSEAEMAAYREPFLAAGEARRPTLSWPRQIPIAGTPADVVAIARDYAGWLSESPIPKLFINAEPGALTTGRMRDFCRTWPNQTEITVAGAHFIQEDSPDEIGAAIAAFVRRLRPAHHHHHH,soluble
3,MVDYHYFKSKLNHFYGRYVGYNQRPVFFDIDQTFPELNHITRHFPDIKREFENVQANVKEFPRYHDIDPGESAISNTTEKNWNVFMLYLLGYQLKEARLLCPELCNLLEGIPHLIQAFFSILEPGKSIPLHEGPYIGYLRYHLGIHVPQNNPPQILVNNQTYTWKEGEAVLFDDSWPHEVRNTSDDYRAVLIIDVLRPMPFLPQLVNQFVTHVIARYFYGRKVMKRAMQYGGEVKPLAL,not soluble
4,MNLLERIKKLAKDRDVSIYQLEEEINIGRNTIYQWNKRTPSSDKLEAVANYFNVSVDYLLGRTENPNQAGAKPSDDLDDVLDNVMSFDGEPLDDHDREVIRAYLKGRFGK,not soluble
5,MGSDKIHHHHHHMNGFSQLEGLRGHPSVVRVIGHRGARGVMPENTLEGFAFTLAAGVRALEFDVVMTADGVPVVTHNHHLANAMTRDGQGHWLTGAERQVAEMTYAEIRALDVGGLDGRTVYGRRFPDQAFLTGIHVPRLGELLDLCAGYGDQAPYLLLELKSDPALMHDHAARAEMVAAVLADVRRYRMEPRTVMHSFDWALLGECRRQAPDLPTSYLSQLPENADDPGEDSAKPVGPDYDRMTESLPQAVASAGGQLWCPYFLDVTPELVAEAHDLGLIVLTWTVNEPEDIRRMATTGVDGIVTDYPGRTQRILIDMGLSWT,not soluble
6,MQPYWAAIEADIERYLKKSITIRPPETVFGPMHHLTFAAPATAASTLCLAACELVGGDRSQAMAAAAAIHLVHAAAYVHEHLPLTDGSRPVSKPAIQHKYGPNVELLTGDGIVPFGFELLAGSVDPARTDDPDRILRVIIEISRAGGPEGMISGLHREEEIVDGNTSLDFIEYVCKKKYGEMHACGAACGAILGGAAEEEIQKLRNFGLYQGTLRGMMEMKNSHQLIDENIIGKLKELALEELGGFHGKNAELMSSLVAEPSLYAAHHHHHHHH,soluble
7,MSDADSQKQIKLTSSDDKTFTVSRKVISQSKTITDIIQNLGIEESGSTSEDTIPLQKVTSTILEKIITWCEHHADDEPKKVDENKKTVDISEWDAEFMKVDQGTLFEIILAANYLDIRGLLDVTTQNVANMMKGKTPSQIRTLFNIENDFSEEEREAMKKENAWCED,not soluble
8,MSLIQDNEISSSTKTRIKALKFFSRKMLSELNFGGYRSIFKGLGLEFHEFRPYEDSDDARFIDWNVSSKADSIFSKVFKEDRGMNLHLLVDNSLSMSLGDKVNKKDVQDLLVSIFAHMAFFNNDKIGVTFFSSGTDKFIPSSKGHSHLGLILSETINRNLKPGSSLAYIFKNTAEYYKKRSLVIIISDFKANAYFKSLNVLSKRHNVIAIRISDFFDENFPKIGTLICEDIETGENFLVSGFSKSTLSGYKNYWTLDKIKWKKECIKKNISFIEIDTKEDVFKKLKILLKKGQEGHHHHHH,not soluble
